Assay results from the supplement of paper PMC10567573.

B1: ZNF449 (parent)
chain: CTHCSKSFRQRAGLIMHQVTHFRG
B2: TRIM63 (parent)
chain: QRITQEQEKKLSFIEALIQQYQEQ

Variants of: B1
Assay: protein stability index of a GFP-peptide fusion (GPS, HEK-293T) (PSI 1-6); higher = more stable
Conditions: c terminus: a fixed tail appended
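Also: lentivirally expressed fusions sorted by FACS into six bins by GFP to DsRed ratio, PSI derived from sequencing read proportions per bin multiplied by bin number.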

Variant | protein stability index
CTHCCKSFRQRAGLIMHQVTHFRG [S5C] | 2.1
CTHCMKSFRQRAGLIMHQVTHFRG [S5M] | 1.56
CTHCRKSFRQRAGLIMHQVTHFRG [S5R] | 1.7
CTHCFKSFRQRAGLIMHQVTHFRG [S5F] | 1.7
CTHCDKSFRQRAGLIMHQVTHFRG [S5D] | 1.73
CTHCYKSFRQRAGLIMHQVTHFRG [S5Y] | 2.75
CTHCWKSFRQRAGLIMHQVTHFRG [S5W] | 2.06
CTHCKKSFRQRAGLIMHQVTHFRG [S5K] | 2.52
CTHCNKSFRQRAGLIMHQVTHFRG [S5N] | 1.88
CTHCAKSFRQRAGLIMHQVTHFRG [S5A] | 1.98

Variants of: B2
Assay: as above
Conditions: c terminus: a fixed tail appended

Variant | protein stability index
QRFTQEQEKKLSFIEALIQQYQEQ [I3F] | 2.61
QRETQEQEKKLSFIEALIQQYQEQ [I3E] | 2.45
QRGTQEQEKKLSFIEALIQQYQEQ [I3G] | 2.31
QRTTQEQEKKLSFIEALIQQYQEQ [I3T] | 2.39
QRITQEQEKKLSMIEALIQQYQEQ [F13M] | 3.25
QRITQEQEKKLSTIEALIQQYQEQ [F13T] | 4.78
QRITQEQEKKLSAIEALIQQYQEQ [F13A] | 4.47
QRITQEQEKKLSIIEALIQQYQEQ [F13I] | 2.62
QRITQEQMKKLSFIEALIQQYQEQ [E8M] | 1.62
QRITQEQKKKLSFIEALIQQYQEQ [E8K] | 2.12
QRITQEQQKKLSFIEALIQQYQEQ [E8Q] | 2.12
QRITQEQEKKLFFIEALIQQYQEQ [S12F] | 2.56
QRITQEQEKKLIFIEALIQQYQEQ [S12I] | 2.12
QRITQEQEKKLYFIEALIQQYQEQ [S12Y] | 1.85
QRITQEQEKKLQFIEALIQQYQEQ [S12Q] | 2.62
QRITQEQEKKLWFIEALIQQYQEQ [S12W] | 1.57
QMITQEQEKKLSFIEALIQQYQEQ [R2M] | 2.48
QCITQEQEKKLSFIEALIQQYQEQ [R2C] | 2.85
QGITQEQEKKLSFIEALIQQYQEQ [R2G] | 2.35
QWITQEQEKKLSFIEALIQQYQEQ [R2W] | 2.2
QSITQEQEKKLSFIEALIQQYQEQ [R2S] | 2.45

Variant | protein stability index
QRITQEQEKKLSFIEALIQQYQIQ [E23I] | 1.54
QRITQEQEKKLSFIEALIQQYQWQ [E23W] | 2.1
QRITQEQEKKLSFIEALIQQYQGQ [E23G] | 2.57
QRITQEQEKKLSFIEALIQQYQPQ [E23P] | 1.95
QRITQEQETKLSFIEALIQQYQEQ [K9T] | 2.41
QRITQEQEHKLSFIEALIQQYQEQ [K9H] | 2.6
QRITQEQELKLSFIEALIQQYQEQ [K9L] | 1.88
QRITQEQEKKLSFIEALNQQYQEQ [I18N] | 3.57
QRITQEQEKKLSFIEALKQQYQEQ [I18K] | 2.42
QRITQEQEKKLSFIEALFQQYQEQ [I18F] | 2.74
QRITQEQEKKLSFIEALDQQYQEQ [I18D] | 2.92
QRITQEQEKKLSFIEALIQNYQEQ [Q20N] | 2.93
QRITQEQEKKLSFIEALIQWYQEQ [Q20W] | 2.01
QRITQEQEKKLSFIEALIQVYQEQ [Q20V] | 1.42
QRITQEQEKKLSFIEALIQQYCEQ [Q22C] | 2.48
QRITQEQEKKLSFIEALIQQYKEQ [Q22K] | 2.03
QRITQEQEKKLSFIEALIQQYMEQ [Q22M] | 1.79
QRITQEQEKKLSFIEALIQQVQEQ [Y21V] | 2.32
QRITREQEKKLSFIEALIQQYQEQ [Q5R] | 2.24
QRITHEQEKKLSFIEALIQQYQEQ [Q5H] | 2.05
QRITGEQEKKLSFIEALIQQYQEQ [Q5G] | 2.62

Variant | protein stability index
QRITVEQEKKLSFIEALIQQYQEQ [Q5V] | 1.94
QRITEEQEKKLSFIEALIQQYQEQ [Q5E] | 2.98
QRITSEQEKKLSFIEALIQQYQEQ [Q5S] | 2.17
QRITFEQEKKLSFIEALIQQYQEQ [Q5F] | 1.73
QRITQEQEKPLSFIEALIQQYQEQ [K10P] | 2.77
QRITQEQEKSLSFIEALIQQYQEQ [K10S] | 2.73
QRITQEQEKTLSFIEALIQQYQEQ [K10T] | 2.2
QRITQEQEKILSFIEALIQQYQEQ [K10I] | 2.57
QRITQEQEKKLSFIEALINQYQEQ [Q19N] | 2.25
QRITQEQEKKLSFIEALIVQYQEQ [Q19V] | 1.81
QRITQEQEKKLSFAEALIQQYQEQ [I14A] | 2.41
QRIIQEQEKKLSFIEALIQQYQEQ [T4I] | 2.55
QRIMQEQEKKLSFIEALIQQYQEQ [T4M] | 2.7
QRIEQEQEKKLSFIEALIQQYQEQ [T4E] | 3.19
QRINQEQEKKLSFIEALIQQYQEQ [T4N] | 2.59
QRITQPQEKKLSFIEALIQQYQEQ [E6P] | 1.97
QRITQVQEKKLSFIEALIQQYQEQ [E6V] | 1.81
QRITQWQEKKLSFIEALIQQYQEQ [E6W] | 1.43
QRITQSQEKKLSFIEALIQQYQEQ [E6S] | 2.09
QRITQNQEKKLSFIEALIQQYQEQ [E6N] | 1.73
QRITQIQEKKLSFIEALIQQYQEQ [E6I] | 1.62

Variant | protein stability index
QRITQEQEKKTSFIEALIQQYQEQ [L11T] | 2.54
QRITQEQEKKYSFIEALIQQYQEQ [L11Y] | 2.79
GRITQEQEKKLSFIEALIQQYQEQ [Q1G] | 2.13
TRITQEQEKKLSFIEALIQQYQEQ [Q1T] | 2.19
SRITQEQEKKLSFIEALIQQYQEQ [Q1S] | 2.23
LRITQEQEKKLSFIEALIQQYQEQ [Q1L] | 2.57
QRITQEQEKKLSFIEAAIQQYQEQ [L17A] | 3.42
QRITQEQEKKLSFIEADIQQYQEQ [L17D] | 4.58
QRITQEQEKKLSFIEAEIQQYQEQ [L17E] | 4.81
QRITQEREKKLSFIEALIQQYQEQ [Q7R] | 2.29
QRITQEAEKKLSFIEALIQQYQEQ [Q7A] | 2.16
QRITQEQEKKLSFIGALIQQYQEQ [E15G] | 2.44
QRITQEQEKKLSFIYALIQQYQEQ [E15Y] | 2.34
QRITQEQEKKLSFITALIQQYQEQ [E15T] | 2.32
QRITQEQEKKLSFIDALIQQYQEQ [E15D] | 2.19
QRITQEQEKKLSFIEALIQQYQEL [Q24L] | 2.16
QRITQEQEKKLSFIEALIQQYQEN [Q24N] | 2.25
QRITQEQEKKLSFIEALIQQYQEY [Q24Y] | 1.66
QRITQEQEKKLSFIEILIQQYQEQ [A16I] | 3.03
QRITQEQEKKLSFIEWLIQQYQEQ [A16W] | 2.37
QRITQEQEKKLSFIEMLIQQYQEQ [A16M] | 3.77
